Patent US20240117047A1 (University of California, published 2024)

What was measured:
[1] = target: T1, extracellular domain of mouse ROR1 (mouse, UniProt Q9Z139 30-406); assay: blot of recombinant protein, non-denaturing gel
T1 construct: also called mROR1; mROR1 protein
Text: (§1) Schematics of the chimeric constructs of the extracellular portion of ROR1 used to map the domain of hROR1 bound by each of the mAb in this disclosure. The dark regions of each construct indicate hROR1, light portions denote regions of mROR1, and hatched portions indicate deleted regions. Arrows mark the boundaries between the mouse and hROR1 regions for constructs #5, #6, #13 and #14, which depict the first 160 amino acids of the extracellular region that includes the Ig-like domain. The amino acids that differ between human and mROR1 are indicated by the single letter abbreviation at that position. (B) Each of these recombinant proteins were separated in non-denaturing polyacrylamide gel, transferred onto nylon, probed with the anti-hROR1 mAb indicated on the left, and detected with an anti-mouse IgG antibody conjugated with horse radish peroxidase. […] None of the antibody bind to mROR1.

[2] = target: T2, hROR1 with a single amino acid substitution at position 346 (threonine to serine) (human, UniProt Q01973 30-406); assay: binding to point-mutated hROR1; blot in FIG. 6
T2 construct: Recombinant mutant of the hROR1 extracellular domain; also called hROR1 T346S
T2 sequence (Q01973 30-406 T346S limits assumed): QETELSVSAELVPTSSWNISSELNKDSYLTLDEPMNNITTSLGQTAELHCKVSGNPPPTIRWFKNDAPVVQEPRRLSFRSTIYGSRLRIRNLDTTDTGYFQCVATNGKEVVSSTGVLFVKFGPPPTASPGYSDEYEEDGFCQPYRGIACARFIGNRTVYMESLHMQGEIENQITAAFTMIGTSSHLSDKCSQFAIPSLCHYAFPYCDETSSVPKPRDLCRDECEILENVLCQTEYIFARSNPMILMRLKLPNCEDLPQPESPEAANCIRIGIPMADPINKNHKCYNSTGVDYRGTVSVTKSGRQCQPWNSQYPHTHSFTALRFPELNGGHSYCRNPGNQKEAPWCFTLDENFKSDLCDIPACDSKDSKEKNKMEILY
Text: Neither of the antibody reacts with mROR1 protein. […] We generated recombinant hROR1 proteins having either the mouse or human amino acid residue at this position only.

[3] = target: T3, extracellular domain of human ROR1 (human, UniProt Q01973 30-406); assay: blot, non-denaturing gel
T3 construct: also called hROR1; hROR1 extracellular recombinant protein
T3 sequence (Q01973 30-406 limits assumed): as the sequence (Q01973 30-406 T346S limits assumed) above, with S317T counted along it
Text: as §1

[4] = target: T3, extracellular domain of human ROR1; assay: ELISA screening
[5] = target: T2, hROR1 with a single amino acid …; assay: binding to point-mutated hROR1
[6] = target: T4, hROR1 with a single amino acid substitution at position 138 (glutamic acid to lysine) (human, UniProt Q01973 30-406); assay: binding to point-mutated hROR1
T4 construct: Recombinant mutant of the hROR1 extracellular domain; also called hROR1 E138K
T4 sequence (Q01973 30-406 E138K limits assumed): as the sequence (Q01973 30-406 T346S limits assumed) above, with E109K, S317T counted along it

T1 sequence (Q9Z139 30-406 limits assumed): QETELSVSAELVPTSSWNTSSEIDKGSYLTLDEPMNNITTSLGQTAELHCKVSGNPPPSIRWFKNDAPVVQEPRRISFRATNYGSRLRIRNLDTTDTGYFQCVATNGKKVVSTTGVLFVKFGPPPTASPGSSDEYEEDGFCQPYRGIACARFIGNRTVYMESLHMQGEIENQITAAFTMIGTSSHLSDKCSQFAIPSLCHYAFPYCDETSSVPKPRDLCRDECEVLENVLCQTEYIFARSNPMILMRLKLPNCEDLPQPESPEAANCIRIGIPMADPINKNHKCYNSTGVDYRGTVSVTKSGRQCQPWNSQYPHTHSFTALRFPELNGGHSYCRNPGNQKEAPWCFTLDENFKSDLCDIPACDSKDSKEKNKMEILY

Binder | binding result [1] | binding result [2] | binding result [3] | binding result [4] | binding result [5] | binding result [6]
UC-106 (antibody, V domains shown, Mouse-derived anti-hROR1 mAb, detected with anti-mouse IgG) VH: QIQLVQSGPELKKPGETVKISCKASGYTFTYYPIHWVKQAPGKGLKWMGWINTYSGVPTYADDFKGRFAFSLETSANTAYLQINNLRNEDMATYFCARGDSSLFDYWGQGTTLTVSS VL: GHQMTQSPSSLSASLGERVSLTCRASQEISGYLIWLQQKPDGTIKRLIYAASTLNSGVPKRFSGSRSGSDYSLTISSLESEDFADYYCLQYTSYPLTFGAGTKLELKR | no binding | no binding | binds |  |  | 
UC-101 (antibody, V domains shown, Mouse-derived anti-hROR1 mAb, detected with anti-mouse IgG; also called UC-101 mAb) VH: EVQLLETGGGLVQPGGSRKLSCVASGFSFSSYGMHWVRQAPEKGLEWVAYIGGTSNTIYFADTVKGRFTISRDNAKNTLFLQMASLRSEDTAMYYCARTNLLGMDYWGQGTSVTVSS VL: QIVLTQSPTIMSASPGEKVTMTCSASSSVSDMYWYQQKPGSSPRLLIYDTSNLASGVPVRFSGSGSGTSYSLTISRMEAEDAATYYCQQWISYTFGGGTKLEIKR | no binding |  |  | binds |  | no binding
UC-104 (antibody, V domains shown, Mouse-derived anti-hROR1 mAb, detected with anti-mouse IgG; also called UC-104 mAb) VH: EVQLLETGGGLVQPGGSRKLSCAASGFTFSNYGMHWVRQAPGKGLEWVAHISRYSDTIYYADAVKGRFTISRDNAKNTLFLQMTTLRSEDTAIYYCTSAMDYWGQGTSVTVSS VL: DIQMTQTTSSLSASLGDRVTISCRASQDISNYLNWFQQKPDGTIKLLIYYTSRLHSGVPSRFSGSGSGTDYSLTISNLEQEDIATYFCQQGNTLPFTFGSGTKLEIKR | no binding |  |  | binds |  | no binding
UC-105 (antibody, V domains shown, Mouse-derived anti-hROR1 mAb, detected with anti-mouse IgG) VH: EVKLVESGGGLVQPGGSRKLSCAASGFTFSSYGMHWIRQTPDKGLEWVAYISSNSDHIFYTDTVKGRFTISRDNAKNTLFLQMTSLRSEDTAMYYCASRMDYWGQGTSVTVSS VL: DIQMTQTTSSLSASLGDRVTISCRASQDISNHLNWYQQKPDGTVKLLIYYTSRLHSGVPSRFSGSGSGTDYSLTISNLEQGDIATYFCQQGSTLPYTFGGGTKLEIKR | no binding |  |  | binds |  | no binding

Second part, the binder after the results:

binding result [1] | binding result [2] | binding result [3] | binding result [4] | binding result [5] | binding result [6] | Binder
no binding |  |  | binds | no binding |  | UC-107 (antibody, V domains shown, Mouse-derived anti-hROR1 mAb, detected with anti-mouse IgG; also called UC-107 mAb) VH: QIQLVQSGPELKKPGETVKISCKASGYTFTNYPIHWVKQAPGKGLKWMGWINTYSGVPTYADDFKGRFAFSLETSANTAYLQLNNLRNEDMATYFCARGDSSLFDYWGQGTTLTVSS VL: DVQMIQSPSSLSASLGERVSLTCRASQEISGYLIWLQQKPDGTITRLIYAASTLDSGVPKRFSGSRSGSDYSLTISSLESEDFADYYCLQYTSYPLTFGAGTKLELKR
no binding |  |  | binds |  | no binding | UC-102 (antibody, V domains shown, Mouse-derived anti-hROR1 mAb, detected with anti-mouse IgG; also called UC-102 mAb) VH: DVHLQESGPGLVKPSQSLSVTCTVTGYSITGSYSWNWIRQFPGNKLEWMGYIHSSGTTNYNPSLKSRISFTRDTSKNQLFLQLNSVTTEDTATYYCTRGFAYWGQGTLVTVSA VL: NIVMTQSPSSMSASLGDRITITCQATQDIVKNLNWYQQKPGKPPSFLIYYTTELAEGVPSRFSGSGSGSDYSLTISNLESEDFADYYCLQFYEFPPTFGAGTKLELKR
no binding |  |  | binds |  | no binding | UC-103 (antibody, V domains shown, Mouse-derived anti-hROR1 mAb, detected with anti-mouse IgG; also called UC-103 mAb) VH: EIQLQQSGPVLVKPGASVKVSCKASGYAFTAYNIHWVRQSHGKRLEWIGSFDPYDGGSSYNQKFKDKATLTVDKSSTTAYMHLNSLTSEDSAVYYCARGWYYFDYWGHGTTLTVSS VL: DVQITQSPSYLAASPGETITINCRASKSISKYLAWYQEKPGKTNKLLIYSGSTLQSGIPSRFRGSGSGTDFTLTISSLEPEDFAMYYCQQHDESPYTFGEGTKLEIKR
